Laboratory results as given in patent US20240108738A1, “BICYCLIC PEPTIDE LIGANDS SPECIFIC FOR NK CELLS” (Bicycle Tx Limited, priority 2021, published 2024).

Target: human CD16a F176 variant, biotinylated (human) (UniProt P08637)
Test: AlphaScreen competition: 10 nM C-terminally biotinylated CD16a F176, mouse IgG2a-conjugated acceptor beads as competed ligand

human CD16a F176 variant, biotinylated (human), sequence (P08637 17-208 limits assumed, change not shown): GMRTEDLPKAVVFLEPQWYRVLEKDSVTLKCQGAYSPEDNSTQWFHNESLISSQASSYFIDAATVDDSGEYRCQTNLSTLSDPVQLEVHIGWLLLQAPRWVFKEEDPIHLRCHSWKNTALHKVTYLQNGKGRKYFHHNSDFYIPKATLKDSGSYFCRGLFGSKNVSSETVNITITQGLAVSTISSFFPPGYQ

Substance: IgG positive control (antibody)
- IC50 (read off the curve): 50 nM
